The DeepSol protein solubility set

experiment: soluble on expression in E. coli; label from the status in PepcDB or PDB records

Soluble on expression in E. coli, not soluble:
MGSDKIHHHHHHMVKSNICGGSTMTQTLPKLVTFEQFIEWYPSNGARYELHKGVIVEMPPPSGEHENVVGFLAAQITLQFLQMGLPFCIPKTAFVKIQSNNSTYSPDILLLNHDNLVNEPLWSKQSTVIQAASIPLAVEVVSQCVARVPRVEATDEPVRVSTNWRDDYYDKFRDYEEMGIPEYWIVDYAAIGGKRFTGNPKQKTITICELVEGDYQMTVFRENNFVVSPLFPQLNLTAQQIFDSAL
MGSDKIHHHHHHMVNLDGGYTAYEQQHNNESFKLEKDKEIQIKDNRKTFNYSNLQCPGPIVNISKEIKNIAIGDQIEVVVTDHGFLNDIKSWVKQTGHTLVRLNDSGNEIRAIIQKEENKNIEVTHTKNGTTIVLFSGELDKAVAAMIIANGAKAAGRDVTIFCTFWGLNALKKIQSQRIKKKGIAKLFDFMLPNSPIKMPISKMNMFGVGNLMMRYVMKKKNVDDLPSLINQAVEQGVKLIACTMSMDVMGISKEELRDDVEYGGVGAYIGYTEQANHNLFI
MGSDKIHHHHHHMVRKKKEVAQVPSTSKEIKDTLWKSADKLRGSMDASQYKDVALGLVFLKYVSDSFEERQKEIRAELEGKGFDEEYILEDLADVDAYTSENVFWVASNARWDFLKKYSKGMDLEGKHKSIGKLIDEAMQQLMADNESLLGTLPQIYGKDNIDQRRLGELVDLFSSTYFASTKDKKARDLLGEVYEYFLDKFAKAEGKRGGEFYTPQPVVRTLVEILEPTEGRVYDPCCGSGGMFVQAEKFLEVTKRDRSNIAVYGQELNERTWRMAKMNLAIHAISSSGLGERWGDTFARDIHAGTKMDYIMANPPFNIKDWIRNEEDARWKYGVPPAKNANFAWIQHIISKLKDHGEAGVVMANGTMTSQSSGEGEIRKNMVEDDVVSCVIALPAQLFRGTGIPVCVWFFAKDKSAGVGGSVDRRGEVLLIDARQLGHMIDRTERAFSDEDITKIANAFRTWRGRKSAEGEYEDEAGFCKSATIEEIREAGYALTPGRYVGMPEAEEDDEPIDEKIARLTAELTAALDESARLDAVVREQLGRLK
MGSDKIHHHHHHMVRQFLPLNGLRAFEASARHLSFTRAAIELCVTQAAVSQQVKGLEKRLGVALFQRLPRGLKITAEGEALLPTVTSSFDQMATTLDRIEAGQVRELLFLGVVGTFAVGWLLPRLAAFQKRHPFIDVRVSTNNNRVDMAAEGLDFAIRFGQGSWHGTDAFRLFEAPLSPLCTPKLAEMLKEPADLMDATLLRSYRADEWSTWFAAAGVSPAAQVNAGIVFDTSLGMMEAALQGLGVALAPPSMFSRHLTSGAVMQPFPVTISLGSYWLTRLQSKPQTSAMQAFSDWLLETIGTA
MGSDKIHHHHHHMWDRGLHSYRMVHATLKCGCHYLGRVPKNVKFPVDKVLDDGSYLSWIAPDRKSKHKGGTRIQVRVIEYTIDSENGQQTYRLIPSLMDIALFPALLLATEYHQRWEIENTIDELKTHLNGRKTPIRSLKPREVVQEIYGWLLSHYAVRTLMFQAATAASISPLRLGFTGTLKVIRRAIADFQDANSEQLPFFLQANSGDFGAKNPYRRYIAALTQQRDFNLLILQNRLDHRFTNGCIPVFIIPKQINNREGLLQKTEVRK
MGSDKIHHHHHHMWFKNLQLHRFSAPWSPSADEVEASLAKHAFFPGTSLEMQTQGWASPRDNGQLVHAVGRQMLLTLRTEKKLLPATVVNQVTKARAAEVEEQQGYKPGRKQLRELKEQVTEELLPRAFSIRRDTRVWIDPDNGWLAIDAASTAKADEVRGMLFKALDALPLANLHVNQSPVAAMTDWLSTDVAPAGFTVDQEIELQSGSESKATVRYVRHPLDAEDLRRHISGGKRCTRLAMTWNDRVSFVLTDSLAIKRVAPLDVIKEQADGTVSDEDERFDADFTLMAGELAGMLGDLTEALGGERKA
MGSDKIHHHHHHMWQDILNIHPDCIEDFINFDKLPGQAASLIAFAGMSYLQTEYKIGKTGKGNICLNNENNSGHVHYLISTHAGEGKIKLGNNEYLVKPGSIVLLPAGTPFLYELSGEYWEMCWLLLHDCSEYKFVHQLHPSVYSSINAERLYQTMSLIREFQHGESIYQSDIILRLVEVLVYQIAQTLNMGQQLTKQQQKFHSLIRRVNKQLQLSWTVKQLAAEMHMSEPHFFRLCKKEMGMTPIKLLTHTRLEYACYLLRYTQYNLDQIADTVGYGDSASFAHRFKKDYGLSPGRWRKEQINNFQSNDIENGEKR
MGSDKIHHHHHHMWTGFFSKSGTGIAEERHQNRRACTDVPLLAERNSKHPDRPYGFAKYRQSGLDIYAWHGIYFFPRFPFIDIDCIRWVCAGLKAFKHYIRENGLPDLIHAHRMNYAGILAQKISQKYGIPYVVTEHSSTITRGLIRPHQWQPMEKAAAHASALLAVSRHFAHVLQHKYGCEWQYLPPTYWAEYSTDRLNKEKKTTNRISCSAPSRTFAVSKDTMSYSLPLPGRWHNARNCA
MGSDKIHHHHHHMYANKVKKIAAVHDLSGMGRVSLTVVIPILSSMGFQVCPLPTAVLSNHTQYPGFSFLDLTDEMPKIIAEWKKLEVQFDAIYTGYLGSPRQIQIVSDFIKDFRQPDSLIVADPVLGDNGRLYTNFDMEMVKEMRHLITKADVITPNLTELFYLLDEPYKADSTDEELKEYLRLLSDKGPQVVIITSVPVHDEPHKTSVYAYNRQGNRYWKVTCPYLPAHYPGTGDTFTSVITGSLMQGDSLPMALDRATQFILQGIRATFGYEYDNREGILLEKVLHNLDMPIQMASYELI
MGSDKIHHHHHHMYCGVPEEDPDKLVALILSGGQSSRMGTDKGSMELNGERLVERAGNLCASAGLPFYYSINASQNQQYLNFLPADALIVDTLDDIKGPLAGLLSFYVKYPNTDVLLLPCDMIHLGKSILSDLVQAYETMSIGHDIIVYQYANEIIEPMPGIYTSEALRKIYWLFLSGDLTRFSLKYCIEISNSFFIPIKKEAEVLFKNINSPEDITPSK
MGSDKIHHHHHHMYLVRNMEHVEPNIDGFKYYCSRFKNHFSFDERLTPWSCPHCKIGRLIAKEENFFCQETLILHSERKPSLQYSGFFICNCCDNKTFSTGTGKNNYYCGGDDETGDFTEMYVNEYTPQFFSPSIMLFNPPASTPQSVRDSLKRAFSICWCDIPASCNVLRVTVEILLKERWPEVPIVINGQNLNKKLNELKKIEASQPKLLEILDYFLAIKWLGNNGSHDAELEERDLAVAFKIMDKALILLYSRDDNSVSEWVRMINAAEGRPIKS
MGSDKIHHHHHHMYNEGVTSPSQLARKKNATDKWHGSSIRKILENPHYTGTLQQCREYRPSVTSKRRRSVNLENQIIIEKSHEPIIPLEDFLIVQEILITRKRRRPQAEVHLFTNTAVCKDCRRSMHFKKNRKGYVCGSYNKHGLKACSDHYVSEIDLTDKVITNLNKIYLKFSKENYFKELSEKALKYKEKIESKIIEINEKLNDKKRDKSNLVISLANGVISKEDYQLAINITNEDISNFETTLHQLSKDLEFQKIEKEIIDFKKSLDKFMKEGTLTPEMLHLLVDEIEVHANGTIEINYRFREPTVPSA
MGSDKIHHHHHHMYQNDFVMPKSVYLLNHSVGRPLQSLRQAFDERFFLPWQGSGREPWGDWLSVVEDFRVQLARLFNSETRLFCPQVNLSSGLTKLVQSHSRLRRPGAVILMSENDFPSMGFALRQALPEAEIRFIPANLDVSLAEVWQAHLTDDIDLVFISHAYSNTGQQAPLDYLIPKVRELGALSLVDVAQAAGVLPLDLNALKPDFMLGSSVKWLCGGPGAAYLWVSAAQLVHCSPQDVGWFSHENPFEFDIHDFRYHDSALKFWGGTPSVAPFALAAHSIGYFAELGSDKVRQHNLMQLQRIWRQAGDALVSPSDAARCSGTAILDFGEDQQAVVEALTQADISLDVRKQGMRISPHIYNGEQDLQRLLEALAPFCR
MGSDKIHHHHHHNKESTTECQTIDFSTLFDGQPEKIPLKEWAKSIHFVQLETNDSILIGNIRATILHKDKILVHHNNLSLFDLSGKFICNIGSKGGGPTEYSGINNAWTDDEGIHIFDIDNKIKTYNWNGKWIKTEPIPESNIKEVFPLASGNNIKAGYIQNITGNEPHKIYLFKDSTILAKIPYGKSFQKGEMTMVFYNECYPFHADGRTFFKEMFNDTIFSIDNQYQPIPRWYIELGKYKIAEDARYTLTDPRKSVFDNAATLTPIGKWDNKLFFSARANKQNYLFYYDLKEKKSNSIQISYPENSFAIPEEHSFIPKCMSDDGKYLISYEIQENDENPVIILAEK
MGSDKIHHHHHHQDGPLRIEITDGVIEPLPFAVPDFIADTPAAAQYATDIARVIAQDLVGSGLFREIPKVAYISPYTDFDAEVNFTDWKAINAQALIAGAVSLSGDRITVRFRGYDVFAGQELGAGLQLSGTTDGWRRIAHKVADTIYSRLTGEGGYFDSRVVFVSETGPKNDRKKRLAIMDYDGANVQYLTNSDAIVLAPRFSPTGDRVLYTSYESGFPQIHVLDVGRVQRRVLSAGNGSMSFAPRFAPNGQTIVYSQSQGGNTDLFSMDINSGNPQRLTSAPSIETAPSFSPDGSQIVFESDRSGTSQLYVMSASGGEAKRISFGQGRYGTPVWSPRGDYIAFTKQNAGRFHIGVMRTDGSEERLLTASFLDEGPTWSPNGRVIMFTRETQGASGQARLYSVDISGRNLKPVKTPDGASDPSWSPLQN
MGSDKIHHHHHHRLVEVGKGFSSTSVNTTVFRNNSIVTHGNTQYISYYDAEGWLMLGKRRLGTGEWILHRTQYKGHVKDAHNIISMMVDGDGYLHLSFDHHGHKLNYCRSIAPDTLVLGDKEPMIGNEEEDVTYPEFHLLADGGLLFVYRSGASGRGNMVMNRYDVKSRKWERVQDVLVDGENERNAYWQLYVDQSGTIHLSWVWRETWHVETNHDLCYARSFDGGRTWYKTNGQKYELPIRLGNAEYACRIPQNAELINQTSMSTDAGGHPYIATYWRNPDSDVPQYRIVWHDGVNWHNRQVSERKAPFSLKGGGTKMIPMSRPRMVVDNGEVYYLFRDQERGSKVSMYYTKDIQFGEWHVKDLTDFAVNAWEPSHDTELWKMKKQLHIYVQDTRQGDGEKQVETEPQMVYVLEL
MGSDKIHHHHHHSCDDDGYSIGDIGWDWATVRATGGGGYYLEGDRWGMIDPVASSIPWYKPVDGERVVAFFNPLADTDKGAQVKIEGIQEVLTKEVEDMTAENEEEFGNDPIVIYQGDMWLGGKFLNIIFHQYLPRSEKHRISLVQNKIEPEAPETPEALNVDEDGYIHLELRYNTYDDVTGYRGWGRVSYNLEEFYPTAKDAAETEFKGFKVTINSKENGEGRVIVLDLDHPVGVPEKAKDVHSTSFVK
MGSDKIHHHHHHSDIASSVNGGSNRLADGGDFELGMSVYGINQIDVRQTGSGTAQLSLLVSGMYQYKGMFVEMIHQSQDGVNLGVNLWSSEDWSFDLLLANLQGSWSRPDLDPSTLDEAGRNAYLLSEDSLYIGAGFRATRYWGDNYVFQYRLVSDYYDDQGIQSSARLGKSWQVRNWNFHVLGSVGYSSATLNRYLFGVSKEEATELFPEYHPSSSFSYGMELGVAYPLSESFVFRAMYRFNVLSKEVTDSPFNQAGYASFFNASISYVF
MGSDKIHHHHHHSDLTSAQVAERLLVSQPKISLLENGHRAISPRDVRDLCELYGVTDRQVIDSLMRMARESGQQGWWNTYGNIPNSVYIGLETDASSIHTYEPMVIPDLLQTPAYAHAVIETTVPPIPAQQADARLKVRLRRQHRIYDPARPLRLWVVLDEPALHRVVGRPDIMREQLEHLNALSAEPHITVQVLPYTAGAHPGRQGQFSVLRFADSPEAGMVYLERFTSDLYLKKPSEVQQYSMMYDHLQARALSPEGTRDFVTDVTKSHIDVASRP

Soluble on expression in E. coli, soluble:
MGSDKIHHHHHHMYRIRVFGDPVLRKRAKPVTKFDENLKKTIERMIETMYHYDGVGLAAPQVGISQRFFVMDVGNGPVAVINPEILEIDPETEVAEEGCLSFPEIFVEIERSKRIKVKYQNTRGEYVEEELEGYAARVFQHEFDHLNGVLIIDRISPAKRLLLRKKLMDIARTVKR
